*1 amine or outer side, *2 acyl side, *3 side chain or, on linkers, in order; H or OH if unused. Where no end group is shown, it is not given here. Side-chain parts run from the residue outwards. [ ]: non-standard residue; d: D form. The star is where a group is joined. C20 diacid = O=C(O)CCCCCCCCCCCCCCCCCCC(=O)*; C18 diacid = O=C(O)CCCCCCCCCCCCCCCCC(=O)*; γGlu = O=C(O)[C@H](CCC(=O)[*:2])N[*:1]; εLys = N[C@@H](CCCCN[*:1])C(=O)[*:2]; pGlu = O=C1CC[C@@H](C(=O)O)N1; αMeL = CC(C)C[C@](C)(N)C(=O)O; PKE = not defined here; AEEA = NCCOCCOCC(=O)O; Aib = CC(C)(N)C(=O)O
Molecular target: T1, human corticotropin-releasing hormone receptor 1 (CRHR1) (human, UniProt P34998 24-415)
T1 sequence (looked up): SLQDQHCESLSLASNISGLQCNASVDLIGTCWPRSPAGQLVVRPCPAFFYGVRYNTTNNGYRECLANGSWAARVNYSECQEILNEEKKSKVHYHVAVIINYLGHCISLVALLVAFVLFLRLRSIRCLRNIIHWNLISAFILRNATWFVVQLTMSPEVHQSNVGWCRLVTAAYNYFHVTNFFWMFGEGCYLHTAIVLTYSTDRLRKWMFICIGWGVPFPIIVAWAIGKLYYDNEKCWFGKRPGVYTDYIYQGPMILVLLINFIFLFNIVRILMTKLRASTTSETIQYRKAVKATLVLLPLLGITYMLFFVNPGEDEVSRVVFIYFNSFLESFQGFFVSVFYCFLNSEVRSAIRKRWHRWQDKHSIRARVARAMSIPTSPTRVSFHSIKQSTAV
Assay: cell-based or functional assay

## Ac-IVTS[αMeL]D[dV]PTG[αMeL]LQIKLEQERAEKARQQAKENTEILAQV-NH2 (not fully specified (residue 29)) [polypeptide comprising SEQ ID NO:32]
  hCRHR1 cAMP EC50: > 10 µM

## [pGlu]GSPSGIVTS[αMeL]DVPT[Aib][αMeL]LQKILEQERAEKARQQAKEAAEILAQV-NH2 [polypeptide comprising SEQ ID NO:23]
  hCRHR1 cAMP EC50: > 10 µM

## Ac-GSPSIVTS[αMeL]DVPT[Aib][αMeL]LQKILEQERAEKARQQAK([γGlu-εLys-AEEA-εLys-C20 diacid])EAAEILAQV-NH2 [polypeptide comprising SEQ ID NO:19]
  hCRHR1 cAMP EC50: > 10 µM

## Ac-GSPSIVTS[αMeL]DVPT[Aib][αMeL]LQKILEQERAEKARQQAK([γGlu-AEEA-εLys-C18 diacid])EAAEILAQV-NH2 [polypeptide comprising SEQ ID NO:21]
  hCRHR1 cAMP EC50: > 10 µM

## Ac-GSPSIVTS[αMeL]DVPT[Aib][αMeL]LQKILEQERAEKARQQAKEAAEILAQV-NH2 [polypeptide comprising SEQ ID NO:20]
  hCRHR1 cAMP EC50: > 10 µM

## Ac-GSPSIVTS[αMeL]DVPT[Aib][αMeL]LQKILEQERAEKARQQAK([AEEA-PKE-γGlu-C20 diacid])EAAEILAQV-NH2 (reading uncertain) [polypeptide comprising SEQ ID NO:3]
  hCRHR1 cAMP EC50: > 10 µM

## Ac-GSPSIVTS[αMeL]DVPT[Aib][αMeL]LQKILEQERAEKARQQAK([γGlu-AEEA-AEEA-εLys-C20 diacid])EAAEILAQV-NH2 [polypeptide comprising SEQ ID NO:17]
  hCRHR1 cAMP EC50: > 10 µM

B1: polypeptide comprising SEQ ID NO:28 (peptide)
peptide: [γGlu]GSPSIVTS[αMeL]DVPT[Aib][αMeL]LQKILEQERAEKARQQATEAAEILAQV-NH2
modifications: not fully specified (residue 1, N-terminus); also: Glu1 linked through its gamma-carboxyl to Gly2
  hCRHR1 cAMP EC50: > 10 µM

## Ac-IVTS[αMeL]D[dV]PTG[αMeL]LQIKLEQERAEKARQQAKENTEILAQV-NH2 (not fully specified (residue 29)) [polypeptide comprising SEQ ID NO:30]
  hCRHR1 cAMP EC50: > 10 µM

## [pGlu]GSPSGIVTS[αMeL]DVPT[Aib][αMeL]LQKILEQERAEKARQQAK([γGlu-AEEA-εLys-C18 diacid])EAAEILAQV-NH2 [polypeptide comprising SEQ ID NO:24]
  hCRHR1 cAMP EC50: > 10 µM

## Ac-GSPSIVTS[αMeL]DVPT[Aib][αMeL]LQKILEQERAEKARQQAK([γGlu-εLys-γGlu-εLys-C20 diacid])EAAEILAQV-NH2 [polypeptide comprising SEQ ID NO:18]
  hCRHR1 cAMP EC50: > 10 µM

B2: polypeptide comprising SEQ ID NO:26 (peptide)
peptide: [γGlu]GSPSIVTS[αMeL]DVPT[Aib][αMeL]LQKILEQERAEKARQQATEAAEILAQV-NH2
modifications: not fully specified (residue 1, N-terminus); also: Glu1 linked through its gamma-carboxyl to Gly2
  hCRHR1 cAMP EC50: > 10 µM

## Ac-IVTS[αMeL]D[dV]PTG[αMeL]LQIKLEQERAEKARQQAKENTEILAQV-NH2 (not fully specified (residue 29)) [polypeptide comprising SEQ ID NO:31]
  hCRHR1 cAMP EC50: > 10 µM

## H-GSPSIVTS[αMeL]DVPT[Aib][αMeL]LQKILEQERAEKARQQATEAAEILAQV-NH2 [polypeptide comprising SEQ ID NO:27]
  hCRHR1 cAMP EC50: > 10 µM

Reference: patent US20250163119A1, “COMPOUNDS FOR THE TREATMENT OF DIABETES OR OBESITY” (Eli Lilly and Company, priority 2023, published 2025)
